Laboratory results from patent publication US20190389951A1 (Regeneron, published 2019).

Legend:
[1] = target: T1, human CD28 on cells (HEK293/hCD28 cells, human T cells, engineered reporter T-cells) (human, UniProt P10747 19-220); experiment: cell-based or functional assay
[2] = target: T2, 6h.hPSMA (recombinant Human PSMA/FOLH1 Protein, R&D, Catalog #4234-ZN) (human, UniProt Q04609 44-750); experiment: SPR (Biacore T-200), antibody captured on anti-human Fc, 6h.hPSMA injected, 25 C
T2 construct: Bought protein; also called hPSMA.6H; hPSMA with an N-terminal polyhistidine tag; not shown: N-terminal polyhistidine (6-His) tag
T2 sequence (Q04609 44-750 limits assumed): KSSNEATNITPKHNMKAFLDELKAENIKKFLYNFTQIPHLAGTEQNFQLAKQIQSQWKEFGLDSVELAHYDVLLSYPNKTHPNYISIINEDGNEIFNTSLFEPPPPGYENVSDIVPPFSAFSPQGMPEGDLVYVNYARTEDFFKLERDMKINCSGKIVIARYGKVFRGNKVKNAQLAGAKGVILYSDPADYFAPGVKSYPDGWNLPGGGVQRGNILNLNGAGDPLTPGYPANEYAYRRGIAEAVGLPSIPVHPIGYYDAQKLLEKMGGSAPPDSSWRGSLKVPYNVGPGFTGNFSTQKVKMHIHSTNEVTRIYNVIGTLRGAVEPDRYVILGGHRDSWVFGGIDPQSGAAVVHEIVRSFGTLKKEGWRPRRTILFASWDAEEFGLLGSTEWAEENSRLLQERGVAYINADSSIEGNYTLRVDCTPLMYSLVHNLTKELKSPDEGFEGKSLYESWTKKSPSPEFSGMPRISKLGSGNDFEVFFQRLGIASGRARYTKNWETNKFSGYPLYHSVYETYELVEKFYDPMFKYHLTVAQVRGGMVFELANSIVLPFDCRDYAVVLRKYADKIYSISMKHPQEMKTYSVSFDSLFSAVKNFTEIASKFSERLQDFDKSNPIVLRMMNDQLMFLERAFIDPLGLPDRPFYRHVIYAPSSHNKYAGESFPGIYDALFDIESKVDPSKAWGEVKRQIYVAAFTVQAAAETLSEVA

[3] = target: T3, hCD28.mmh (hCD28 ecto (N19-P152).mmh) (human); experiment: SPR (Biacore T-200), antibody captured on anti-human Fc, hCD28.mmh injected, 25 C
T3 construct: also called REGN2011

[4] = target: T1, human CD28 on cells (HEK293/hCD28 …); experiment: cell-based or functional assay; remark: listed apart in the source
[5] = target: T1, human CD28 on cells (HEK293/hCD28 …); experiment: cell-based or functional assay; remark: listed apart in the source
[6] = target: T4, human PSMA on cells (C4-2, 22RV1, HEK293/hCD20/hPSMA) (human, UniProt Q04609 1-750); experiment: electrochemiluminescence cell binding (MSD), supplemental experiment, C4-2 P-7 cells
T4 construct: C4-2 and 22RV1 express PSMA endogenously; also called FOLH1
T4 sequence (Q04609 whole entry): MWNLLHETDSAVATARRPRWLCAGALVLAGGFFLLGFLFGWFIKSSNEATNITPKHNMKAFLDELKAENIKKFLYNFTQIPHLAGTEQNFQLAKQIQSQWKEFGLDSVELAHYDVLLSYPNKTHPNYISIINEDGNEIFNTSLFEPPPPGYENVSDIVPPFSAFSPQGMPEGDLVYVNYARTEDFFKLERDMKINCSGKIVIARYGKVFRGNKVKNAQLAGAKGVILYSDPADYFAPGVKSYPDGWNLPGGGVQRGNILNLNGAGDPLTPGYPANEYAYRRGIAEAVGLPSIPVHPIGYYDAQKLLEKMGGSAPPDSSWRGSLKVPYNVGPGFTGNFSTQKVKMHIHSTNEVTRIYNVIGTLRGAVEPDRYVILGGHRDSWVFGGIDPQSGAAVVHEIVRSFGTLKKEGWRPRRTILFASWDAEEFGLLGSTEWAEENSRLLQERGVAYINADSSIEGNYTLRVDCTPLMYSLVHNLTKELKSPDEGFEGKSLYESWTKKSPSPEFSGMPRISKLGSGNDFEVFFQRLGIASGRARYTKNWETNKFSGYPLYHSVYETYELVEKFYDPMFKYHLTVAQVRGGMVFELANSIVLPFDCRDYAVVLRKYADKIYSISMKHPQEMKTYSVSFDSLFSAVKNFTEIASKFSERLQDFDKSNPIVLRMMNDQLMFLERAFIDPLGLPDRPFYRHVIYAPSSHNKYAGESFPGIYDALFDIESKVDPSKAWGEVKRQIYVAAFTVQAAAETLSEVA

[7] = target: T1, human CD28 on cells (HEK293/hCD28 …); experiment: electrochemiluminescence cell binding (MSD), HEK293-hCD28 cells
[8] = target: T3, hCD28.mmh (hCD28 ecto (N19-P152).mmh); experiment: SPR (Biacore), captured antibody, soluble hCD28 injected, 37 C
[9] = target: T4, human PSMA on cells (C4-2, 22RV1, …); experiment: flow cytometry, C4-2 cells
[10] = target: T4, human PSMA on cells (C4-2, 22RV1, …); experiment: flow cytometry (FACS binding), MFI_APC against antibody concentration; the sheet does not name the cells; legend paragraph 55: cancer cell lines with endogenous PSMA; unit taken from the axis Log10 (M)
[11] = target: T2, 6h.hPSMA (recombinant Human PSMA/FOLH1 …); experiment: SPR (Biacore), captured antibody, 20 nM hPSMA.6H row, 37 C
[12] = target: T1, human CD28 on cells (HEK293/hCD28 …); experiment: flow cytometry, human CD8+ T cells
[13] = target: T4, human PSMA on cells (C4-2, 22RV1, …); experiment: flow cytometry, 22RV1 cells
[14] = target: T4, human PSMA on cells (C4-2, 22RV1, …); experiment: electrochemiluminescence cell binding (MSD), C4-2 cells
[15] = target: T1, human CD28 on cells (HEK293/hCD28 …); experiment: flow cytometry, human CD4+ T cells
[16] = target: T2, 6h.hPSMA (recombinant Human PSMA/FOLH1 …); experiment: SPR (Biacore), captured antibody, 10 nM hPSMA.6H row, 37 C
[17] = target: T1, human CD28 on cells (HEK293/hCD28 …); experiment: flow cytometry, human CD2+ T cells
[18] = target: T4, human PSMA on cells (C4-2, 22RV1, …); experiment: electrochemiluminescence cell binding (MSD)
[19] = target: T1, human CD28 on cells (HEK293/hCD28 …); experiment: electrochemiluminescence cell binding (MSD)
[20] = target: T4, human PSMA on cells (C4-2, 22RV1, …); experiment: electrochemiluminescence cell binding (MSD), C4-2 cells; concentrations above 11.1 nM excluded

Binder | IL-2 production EC50, primary CD4+ T-cells + HEK293/hCD20/hPSMA, 50 pM anti-CD3×CD20 [1] | binding result [2] | T½ (dissociative half-life) [3] | NFκB-luciferase EC50, reporter T-cells + HEK293/hCD20/hPSMA, 50 pM anti-CD3×CD20 [4] | Kd [2] | T½ (dissociative half-life) [2] | EC50 [7] | Kd [3] | EC50 [9] | EC50 [12] | EC50 [13] | EC50 [14] | EC50 [15] | EC50 [17] | ratio of binding signal (RLU) C4-2/HEK293HZ at 11.1 nM [18] | ratio of binding signal (RLU) HEK293-hCD28/HEK293HZ at 11.1 nM [19] | EC50 [20] | further results
mAb14226P2 (antibody, V domains shown, Bivalent parental anti-CD28 antibody; also called anti-CD28 monoclonal antibody) VH: QVQLQESGPGLVKPSETLSLTCTVSGGSISSYYWSWIRQPPGKGLEWIGYIYYSGITHYNPSLKSRVTISVDTSKIQFSLKLSSVTAADTAVYYCARWGVRRDYYYYGMDVWGQGTTVTVSS VL: not shown | 8.69e-09 M | no binding (tested: 10 nM) | 3.5 min | 3.27e-09 M |  |  |  |  |  |  |  |  |  |  |  |  |  | IL-2 production EC50, primary CD4+ T-cells + HEK293/hCD20, 50 pM anti-CD3×CD20 [1]: 6.05e-09 M; NFκB-luciferase EC50, reporter T-cells + HEK293/hCD20, 50 pM anti-CD3×CD20 [4]: 3.59e-09 M; NFκB-luciferase EC50, reporter T-cells + HEK293/hCD20, 50 pM hIgG4 isotype control (no TCR stimulation) [5]: 5.11e-09 M; NFκB-luciferase EC50, reporter T-cells + HEK293/hCD20/hPSMA, 50 pM hIgG4 isotype control (no TCR stimulation) [5]: 4.9e-09 M; binding result [6]: no binding
bs16429D (bispecific antibody, human IgG4 S228P, kappa, also called anti-PSMA×CD28 bispecific antibody; PSMA × CD28 monoclonal antibody) heavy 1: QVQLQESGPGLVKPSETLSLTCTVSGGSISSYYWSWIRQPPGKGLEWIGYIYYSGITHYNPSLKSRVTISVDTSKIQFSLKLSSVTAADTAVYYCARWGVRRDYYYYGMDVWGQGTTVTVSSASTKGPSVFPLAPCSRSTSESTAALGCLVKDYFPEPVTVSWNSGALTSGVHTFPAVLQSSGLYSLSSVVTVPSSSLGTKTYTCNVDHKPSNTKVDKRVESKYGPPCPPCPAPPVAGPSVFLFPPKPKDTLMISRTPEVTCVVVDVSQEDPEVQFNWYVDGVEVHNAKTKPREEQFNSTYRVVSVLTVLHQDWLNGKEYKCKVSNKGLPSSIEKTISKAKGQPREPQVYTLPPSQEEMTKNQVSLTCLVKGFYPSDIAVEWESNGQPENNYKTTPPVLDSDGSFFLYSRLTVDKSRWQEGNVFSCSVMHEALHNRFTQKSLSLSPGK heavy 2: QVQLVESGGGVVQPGRSLRLSCAASGFTFSSYGMHWVRQAPGKGLEWVAFMSYDGSNKFYSDSVKGRFTISRDNSRKMLFLQMNNLRAEDTAVYYCARDQYYDFLTDHGVFDYWGQGTLVTVSSASTKGPSVFPLAPCSRSTSESTAALGCLVKDYFPEPVTVSWNSGALTSGVHTFPAVLQSSGLYSLSSVVTVPSSSLGTKTYTCNVDHKPSNTKVDKRVESKYGPPCPPCPAPPVAGPSVFLFPPKPKDTLMISRTPEVTCVVVDVSQEDPEVQFNWYVDGVEVHNAKTKPREEQFNSTYRVVSVLTVLHQDWLNGKEYKCKVSNKGLPSSIEKTISKAKGQPREPQVYTLPPSQEEMTKNQVSLTCLVKGFYPSDIAVEWESNGQPENNYKTTPPVLDSDGSFFLYSRLTVDKSRWQEGNVFSCSVMHEALHNHYTQKSLSLSLGK light: not shown | 2.7e-10 M |  | 3.5 min | 1.72e-10 M | 0.251 nM | 235 min | 9.58 nM | 144 nM | 3.87 nM | 58.9 nM | 3.05 nM | 0.853 nM | 50.9 nM | 48 nM |  |  |  | Kd [8]: 272 nM; t½ (dissociative half-life) [8]: 1.7 min; EC50 [10]: 9.34 nM; Kd [11]: 0.217 nM; t½ (dissociative half-life) [11]: 182 min; Kd [16]: 0.396 nM; t½ (dissociative half-life) [16]: 146 min
bs16430D (bispecific antibody, V domains shown, two distinct heavy chains with a common light chain; also called anti-PSMA×CD28 bispecific antibody; PSMA × CD28 monoclonal antibody) VH 1: EVQLVESGGGLVQPGGSLRLSCAASGFTFSTYAMTWVRQAPGKGLEWVSFISGSGDNTYYADSVKGRFTISRDNSKNTLYLQMNSLRADDSAIYHCAKDSGYCSSGGCSLYFYYGMDVWGQGTTVTVSS VH 2: QVQLVESGGGVVQPGRSLRLSCAASGFTFSSYGMHWVRQAPGKGLEWVAVISYAGNNKYYADSVKGRFTVSRDNSKKTLYLQMNSLRSEDTAVYYCAKDSYYDFLTDPDVLDIWGQGTMVTVSS VL: not shown | 1.5e-10 M |  |  | 4.57e-10 M |  |  | 8.47 nM |  |  |  |  | 5.24 nM |  |  | 10 fold | 41 fold |  | IL-2 production fold induction, primary CD4+ T-cells + HEK293/hCD20, 50 pM anti-CD3×CD20 [1]: 1 fold; IL-2 production fold induction, primary CD4+ T-cells + HEK293/hCD20/hPSMA, 50 pM anti-CD3×CD20 [1]: 165 fold; NFκB-luciferase fold induction, reporter T-cells + HEK293/hCD20, 50 pM anti-CD3×CD20 [4]: 0.92 fold; NFκB-luciferase fold induction, reporter T-cells + HEK293/hCD20/hPSMA, 50 pM anti-CD3×CD20 [4]: 13.6 fold; NFκB-luciferase fold induction, reporter T-cells + HEK293/hCD20, 50 pM hIgG4 isotype control (no TCR stimulation) [5]: 0.87 fold; NFκB-luciferase fold induction, reporter T-cells + HEK293/hCD20/hPSMA, 50 pM hIgG4 isotype control (no TCR stimulation) [5]: 0.89 fold
bs16431D (bispecific antibody, V domains shown, two distinct heavy chains with a common light chain; also called anti-PSMA×CD28 bispecific antibody; PSMA × CD28 monoclonal antibody) VH 1: QVQLVESGGGVVQPGRSLRLSCAASGFTFSSYGMHWVRQAPGKGLEWVAVISYAGNNKYYADSVKGRFTVSRDNSKKTLYLQMNSLRSEDTAVYYCAKDSYYDFLTDPDVLDIWGQGTMVTVSS VH 2: EVQLVESGGGLVQPGGSLRLSCAASGFTFSRNNMHWVRQAPGKGLEYVSGISSNGGRTYYADSVKGRFTISRDNSKNTLYLQMGGLRAADMAVYFCTRDDELLSFDYWGQGTLVTVSS VL: not shown | 2.2e-10 M |  | 8.2 min | 2.78e-10 M | 0.137 nM | 300 min | 5.31 nM | 207 nM | 1.5 nM | 180 nM | 6.33 nM |  | 167 nM | 180 nM |  |  | 0.35 nM | 
mAb11838P2 (antibody, V domains shown, Bivalent parental anti-PSMA antibody; also called anti-PSMA monoclonal antibody; mAb11838P2 (PSMA)) VH: QVQLVESGGGVVQPGRSLRLSCAASGFTFSSYGMHWVRQAPGKGLEWVAFMSYDGSNKFYSDSVKGRFTISRDNSRKMLFLQMNNLRAEDTAVYYCARDQYYDFLTDHGVFDYWGQGTLVTVSS VL: not shown |  |  |  |  |  |  |  |  |  |  |  |  |  |  | 4 fold | < 1 fold | 0.738 nM | binding result [7]: no binding (tested: ratio to HEK293HZ less than 3 at 11.1 nM)
mAb14216P2 (antibody, V domains shown, Bivalent parental anti-CD28 antibody; also called anti-CD28 monoclonal antibody) VH: EVQLVESGGGLVQPGGSLRLSCAASGFTFSRNNMHWVRQAPGKGLEYVSGISSNGGRTYYADSVKGRFTISRDNSKNTLYLQMGGLRAADMAVYFCTRDDELLSFDYWGQGTLVTVSS VL: not shown |  | no binding (tested: 10 nM) | 8.2 min |  |  |  |  |  |  |  |  |  |  |  |  |  |  | binding result [14]: no binding (tested: ratio to HEK293HZ less than 3 at 11.1 nM)
